In patent US20220333113:
Residue numbers refer to the chain shown, from its start.

Tests used:
Test in all cases: filter
Settings in all cases: J = PPdU at every J; SB18T0.01 + 1 mM DTT, 37 C
[1] = target: T1, RIG-I N668A (Homo sapiens) (UniProt O95786)
T1 sequence: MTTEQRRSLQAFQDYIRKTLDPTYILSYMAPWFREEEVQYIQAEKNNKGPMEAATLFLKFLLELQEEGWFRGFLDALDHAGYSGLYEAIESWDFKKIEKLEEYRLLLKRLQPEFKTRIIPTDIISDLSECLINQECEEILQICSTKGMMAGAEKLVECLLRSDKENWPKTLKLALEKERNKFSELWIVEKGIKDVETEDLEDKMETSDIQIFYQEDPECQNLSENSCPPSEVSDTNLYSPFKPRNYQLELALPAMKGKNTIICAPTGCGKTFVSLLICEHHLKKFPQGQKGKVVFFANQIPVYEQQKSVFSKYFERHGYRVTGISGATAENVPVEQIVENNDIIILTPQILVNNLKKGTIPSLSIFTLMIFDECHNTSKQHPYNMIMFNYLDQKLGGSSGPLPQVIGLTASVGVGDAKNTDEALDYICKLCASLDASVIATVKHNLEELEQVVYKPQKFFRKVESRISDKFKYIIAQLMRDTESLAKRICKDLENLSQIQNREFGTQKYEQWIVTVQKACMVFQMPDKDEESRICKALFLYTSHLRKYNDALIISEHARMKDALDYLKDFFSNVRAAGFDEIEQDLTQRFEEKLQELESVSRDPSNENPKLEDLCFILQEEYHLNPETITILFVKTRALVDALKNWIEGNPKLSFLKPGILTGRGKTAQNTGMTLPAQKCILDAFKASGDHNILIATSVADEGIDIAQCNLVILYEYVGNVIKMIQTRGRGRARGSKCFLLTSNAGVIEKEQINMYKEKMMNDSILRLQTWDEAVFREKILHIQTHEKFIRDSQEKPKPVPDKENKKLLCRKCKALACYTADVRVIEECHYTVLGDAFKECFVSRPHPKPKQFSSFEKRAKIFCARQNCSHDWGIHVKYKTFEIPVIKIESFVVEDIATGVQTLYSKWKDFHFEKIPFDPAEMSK

[2] = target: T2, RIG-I K858A (Homo sapiens) (UniProt O95786)
T2 sequence: T1 sequence with A668N, K858A

[3] = target: T3, RIG-I D872A (Homo sapiens) (UniProt O95786)
T3 sequence: T1 sequence with A668N, D872A

## ATCTCTGTGTCATGTGTTTTAATGTCAGTTTAATGATGAGG [14832-55_8]
[1]
  Kd: 110 pM
[2]
  Kd: 2900 pM
[3]
  Kd: 610 pM
